How the values were obtained:
[1] = biological target: HLA-B*15:03; experiment: IEDB peptide-MHC binding, purified MHC/competitive/radioactivity; filed as Kd, often an IC50 or EC50 that approximates it; ≥ and ≤ were set here for values at or beyond the usual limits of such assays; details: source organism: Vaccinia virus WR
[2] = biological target: HLA-B*15:01; experiment: as above; details: source organism: Vaccinia virus WR
[3] = biological target: HLA-A*32:01; experiment: as above; details: source organism: Vaccinia virus WR
[4] = biological target: HLA-A*30:01; experiment: as above; details: source organism: Vaccinia virus WR
[5] = biological target: HLA-B*08:01; experiment: as above; details: source organism: Vaccinia virus WR
[6] = biological target: HLA-A*11:01; experiment: IEDB peptide-MHC binding, purified MHC/competitive/fluorescence; ≥ and ≤ were set here for values at or beyond the usual limits of such assays
[7] = biological target: HLA-A*24:02; experiment: as above; details: source organism: Sudan ebolavirus
[8] = biological target: HLA-A*03:01; experiment: as above
[9] = biological target: HLA-B*45:01; experiment: IEDB peptide-MHC binding, purified MHC/competitive/radioactivity; filed as Kd, often an IC50 or EC50 that approximates it; ≥ and ≤ were set here for values at or beyond the usual limits of such assays
[10] = biological target: HLA-B*18:01; experiment: as above
[11] = biological target: HLA-B*40:01; experiment: as above
[12] = biological target: HLA-B*40:02; experiment: as above
[13] = biological target: HLA-B*44:02; experiment: as above
[14] = biological target: HLA-B*44:03; experiment: as above
[15] = biological target: HLA-B*07:02; experiment: IEDB peptide-MHC binding, purified MHC/direct/fluorescence; filed as Kd, often an IC50 or EC50 that approximates it; ≥ and ≤ were set here for values at or beyond the usual limits of such assays; details: source organism: Influenza A virus (A/Duck/Shantou/1881/00(H9N2))
[16] = biological target: HLA-A*02:11; experiment: as above; details: source organism: Influenza A virus(A/swine/Henan/8/2004(H9N2))
[17] = biological target: HLA-B*15:01; experiment: as above; details: source organism: Influenza A virus (A/Duck/Shantou/1881/00(H9N2))
[18] = biological target: HLA-A*24:03; experiment: as above; details: source organism: Influenza A virus (A/Duck/Shantou/1881/00(H9N2))
[19] = biological target: HLA-B*58:01; experiment: as above; details: source organism: Influenza A virus (A/Duck/Shantou/1881/00(H9N2))
[20] = biological target: HLA-A*01:01; experiment: as above; details: source organism: Influenza A virus (A/Duck/Shantou/1881/00(H9N2))
[21] = biological target: HLA-A*11:01; experiment: as above; details: source organism: Influenza A virus (A/Duck/Shantou/1881/00(H9N2))
[22] = biological target: HLA-A*02:19; experiment: as above; details: source organism: Influenza A virus(A/swine/Henan/8/2004(H9N2))
[23] = biological target: HLA-B*40:01; experiment: as above; details: source organism: Influenza A virus (A/Duck/Shantou/1881/00(H9N2))
[24] = biological target: HLA-B*27:05; experiment: as above; details: source organism: Influenza A virus (A/Duck/Shantou/1881/00(H9N2))
[25] = biological target: HLA-A*02:03; experiment: as above; details: source organism: Influenza A virus(A/swine/Henan/8/2004(H9N2))
[26] = biological target: HLA-A*02:12; experiment: as above; details: source organism: Influenza A virus(A/swine/Henan/8/2004(H9N2))
[27] = biological target: HLA-A*03:01; experiment: as above; details: source organism: Influenza A virus (A/Duck/Shantou/1881/00(H9N2))
[28] = biological target: HLA-A*31:01; experiment: as above; details: source organism: Influenza A virus (A/Duck/Shantou/1881/00(H9N2))
[29] = biological target: HLA-A*02:01; experiment: as above; details: source organism: Influenza A virus (A/Duck/Shantou/1881/00(H9N2))
[30] = biological target: HLA-A*02:01; experiment: IEDB peptide-MHC binding, purified MHC/competitive/fluorescence; ≥ and ≤ were set here for values at or beyond the usual limits of such assays; details: source organism: Vaccinia virus Copenhagen
[31] = biological target: HLA-A*33:01; experiment: IEDB peptide-MHC binding, purified MHC/competitive/radioactivity; filed as Kd, often an IC50 or EC50 that approximates it; ≥ and ≤ were set here for values at or beyond the usual limits of such assays; details: source organism: Vaccinia virus WR
[32] = biological target: HLA-A*31:01; experiment: as above; details: source organism: Vaccinia virus WR
[33] = biological target: HLA-A*68:01; experiment: as above; details: source organism: Vaccinia virus WR
[34] = source organism: Sudan ebolavirus
[35] = source organism: Mammarenavirus lassaense
[36] = source organism: SARS coronavirus Tor2
[37] = source organism: Zaire ebolavirus
[38] = source organism: Mammarenavirus brazilense
[39] = source organism: Vaccinia virus Copenhagen
[40] = source organism: Lymphocytic choriomeningitis virus (strain Armstrong)
[41] = source organism: Mammarenavirus choriomeningitidis

In the case of YKVFTDISM, the Kd [1] is reported as 2.18 nM.
In the case of KMAADRGAF, the Kd [1] is reported as 2.5 nM.
For SGNRGSTSF, the Kd [1] was 25.2 nM.
FFKQTFGSL was tested, and the Kd [2] was 1560 nM, the Kd [3] was ≥ 55800 nM and the Kd [4] was 497 nM. It also gave a Kd [5] of 0.735 nM and a Kd [1] of 1080 nM.
With TYTILNRKA the IC50 [6, 34] was ≥ 90 µM, the IC50 [7] was 22.1 µM and the IC50 [8, 34] was ≥ 94.9 µM.
For FDAAASGGL, the Kd [9, 35] was ≥ 32200 nM, the Kd [10, 35] was ≥ 65.2 µM and the Kd [11, 35] was ≥ 28.5 µM. For the same sequence, the Kd [12, 35] was 3020 nM, the Kd [13, 35] was ≥ 77900 nM and the Kd [14, 35] was ≥ 78.1 µM.
With RGSWATSSF the Kd [1] was 11.1 nM.
For IMVSEHFSL, the Kd [1] was 5.51 nM.
NMFNISFRF was tested, and the Kd [2] was 43.4 nM, the Kd [3] was 3.6 nM and the Kd [4] was 27.2 nM. The Kd [5] was 1540 nM and the Kd [1] was 18.5 nM.
SLPPNFSSL showed a Kd [15] of 1650 nM, a Kd [16] of 24 nM and a Kd [17] of 115 nM. The Kd [18] was 7.5 nM, the Kd [19] was ≥ 20 µM and the Kd [20] was ≥ 20 µM. For the same sequence, the Kd [21] was ≥ 20 µM, the Kd [22] was 124 nM and the Kd [23] was ≥ 20 µM. For the same sequence, the Kd [24] was ≥ 20 µM, the Kd [25] was 3 nM and the Kd [26] was 5 nM. The Kd [27] was ≥ 20 µM, the Kd [28] was ≥ 20 µM and the Kd [29] was 9.3 nM.
SLPRIALVR showed an IC50 ([6]; source organism: Variola virus) of 0.408 µM and an IC50 ([8]; source organism: Variola virus) of 0.781 µM.
With FVYVPELSF the Kd [2] was 0.963 nM and the Kd [1] was 203 nM.
With QELYSPLFLI the Kd [9, 36] was 45.6 nM, the Kd [10, 36] was 4.91 µM and the Kd [11, 36] was 0.69 µM. For the same sequence, the Kd [12, 36] was 10.7 nM, the Kd [13, 36] was 7.01 nM and the Kd [14, 36] was 0.00736 µM.
In the case of YDFNKLTAL, the Kd [9, 35] is reported as ≥ 77700 nM, the Kd [10, 35] is reported as 6.78 µM and the Kd [11, 35] is reported as 5.34 µM. The Kd [12, 35] was 19.8 nM, the Kd [13, 35] was 2270 nM and the Kd [14, 35] was 9.17 µM.
With FELTSMKYFV the Kd [9, 36] was 7780 nM, the Kd [10, 36] was ≥ 37.9 µM and the Kd [11, 36] was 2.14 µM. The Kd [12, 36] was 24.2 nM, the Kd [13, 36] was 7160 nM and the Kd [14, 36] was 4.47 µM.
With SEAQMSIQL the Kd [9, 35] was 542 nM, the Kd [10, 35] was 1.1 µM and the Kd [11, 35] was 11.6 µM. For the same sequence, the Kd [12, 35] was 15.3 nM, the Kd [13, 35] was 161 nM and the Kd [14, 35] was 0.0993 µM.
FEKMVSLLSV gave a Kd [9, 36] of 784 nM, a Kd [10, 36] of 0.145 µM and a Kd [11, 36] of 0.0252 µM. The Kd [12, 36] was 23.7 nM, the Kd [13, 36] was 3280 nM and the Kd [14, 36] was 6.18 µM.
Sequence FESYVRPFVA has a Kd [9, 35] of 151 nM, a Kd [10, 35] of 0.982 µM and a Kd [11, 35] of 5.42 µM. For the same sequence, the Kd [12, 35] was 19.9 nM, the Kd [13, 35] was ≥ 70200 nM and the Kd [14, 35] was ≥ 32 µM.
HGFRFEVKK gave an IC50 [6, 37] of 0.0865 µM and an IC50 [8, 37] of 2.2 µM.
With GERYYFAYI the Kd [2] was 673 nM, the Kd [3] was 19500 nM and the Kd [4] was 6620 nM. It also gave a Kd [5] of 6.86 nM and a Kd [1] of 238 nM.
In the case of GERSRCYSL, the Kd [9, 38] is reported as ≥ 77700 nM, the Kd [10, 38] is reported as ≥ 77.5 µM and the Kd [11, 38] is reported as 3.38 µM. The Kd [12, 38] was 51.2 nM, the Kd [13, 38] was ≥ 77900 nM and the Kd [14, 38] was ≥ 78.1 µM.
RKYSDLVPK gave an IC50 [6, 34] of 4.13 µM and an IC50 [8, 34] of 49.1 µM.
Sequence ILHHHRNVF has a Kd [5] of 13 nM and a Kd [1] of 1.33 nM.
FIMLEGETK was tested, and the IC50 [6, 39] was 4.88 µM, the IC50 [8, 39] was ≥ 116 µM and the IC50 [30] was 30.7 µM. It also gave a Kd [31] of 4.41 µM, a Kd [32] of 17.8 µM and a Kd [33] of 28.1 nM.
In the case of GDVELLGTT, the Kd [9, 35] is reported as 16600 nM, the Kd [10, 35] is reported as ≥ 77.5 µM and the Kd [11, 35] is reported as ≥ 33.7 µM. For the same sequence, the Kd [12, 35] was 5920 nM, the Kd [13, 35] was ≥ 41800 nM and the Kd [14, 35] was ≥ 52.1 µM.
In the case of TKTLDISSF, the Kd [1] is reported as 54.5 nM.
With SEAPNAKEEI the Kd [9, 36] was 319 nM, the Kd [10, 36] was ≥ 27.2 µM and the Kd [11, 36] was 1.18 µM. The Kd [12, 36] was 3350 nM, the Kd [13, 36] was 105 nM and the Kd [14, 36] was 0.145 µM.
In the case of VEAVMYMGT, the Kd [9, 36] is reported as 616 nM, the Kd [10, 36] is reported as 2.47 µM and the Kd [11, 36] is reported as ≥ 31.3 µM. The Kd [12, 36] was 1320 nM, the Kd [13, 36] was ≥ 21900 nM and the Kd [14, 36] was 6.51 µM.
Sequence RSLIIVLLF has a Kd [2] of 194 nM, a Kd [3] of 299 nM and a Kd [4] of 2350 nM. The Kd [5] was 959 nM and the Kd [1] was 225 nM.
KTIYAVDSF showed a Kd [2] of 4.04 nM, a Kd [3] of 6.78 nM and a Kd [4] of 1390 nM. For the same sequence, the Kd [5] was ≥ 31900 nM and the Kd [1] was 321 nM.
In the case of REGVFVFNGT, the Kd [9, 36] is reported as 222 nM, the Kd [10, 36] is reported as ≥ 70.5 µM and the Kd [11, 36] is reported as 0.677 µM. It also gave a Kd [12, 36] of 274 nM, a Kd [13, 36] of 1600 nM and a Kd [14, 36] of 0.306 µM.
For SQQNSDSIF, the Kd [1] was 1.87 nM.
With FEEHLAPFMS the Kd [9, 38] was 8780 nM, the Kd [10, 38] was 3.38 µM and the Kd [11, 38] was 2.36 µM. For the same sequence, the Kd [12, 38] was 2570 nM, the Kd [13, 38] was ≥ 47400 nM and the Kd [14, 38] was ≥ 70.1 µM.
In the case of QTNTKATGK, the IC50 [6, 34] is reported as 2.19 µM and the IC50 [8, 34] is reported as 14 µM.
Work on KPNSFTFSF yielded a Kd [3] of 13900 nM and a Kd [1] of 254 nM.
AEALGPFQS was tested, and the Kd [9, 40] was 132 nM, the Kd [10, 40] was ≥ 77.5 µM and the Kd [11, 40] was ≥ 32.1 µM. For the same sequence, the Kd [12, 40] was 4960 nM, the Kd [13, 40] was 1320 nM and the Kd [14, 40] was 6.97 µM.
ITKGRISDR was tested, and the IC50 [6, 34] was ≥ 135 µM and the IC50 [8, 34] was 66.3 µM.
ADYLSCSHF was tested, and the Kd [9, 41] was 17700 nM, the Kd [10, 41] was ≥ 77.5 µM and the Kd [11, 41] was ≥ 47 µM. The Kd [12, 41] was 254 nM, the Kd [13, 41] was 319 nM and the Kd [14, 41] was 2.74 µM.
TKFTDFQDF gave a Kd [1] of 2.22 nM.

Reference: the Immune Epitope Database (IEDB)
